# Assay results published in PMC5299047 (Structure (London, England : 1993), 2017).
# Target: the molecule itself
# Assay: SAXS
protein,measurement,value
"Saccharomyces cerevisiae Rnt1p (intact protein) (enzyme, UniProt Q02555 1-471, looked up) MGSKVAGKKKTQNDNKLDNENGSQQRENINTKTLLKGNLKISNYKYLEVIQLEHAVTKLVESYNKIIELSPNLVAYNEAVNNQDRVPVQILPSLSRYQLKLAAELKTLHDLKKDAILTEITDYENEFDTEQKQPILQEISKADMEKLEKLEQVKREKREKIDVNVYENLNEKEDEEEDEGEDSYDPTKAGDIVKATKWPPKLPEIQDLAIRARVFIHKSTIKDKVYLSGSEMINAHNERLEFLGDSILNSVMTLIIYNKFPDYSEGQLSTLRMNLVSNEQIKQWSIMYNFHEKLKTNFDLKDENSNFQNGKLKLYADVFEAYIGGLMEDDPRNNLPKIRKWLRKLAKPVIEEATRNQVALEKTDKLDMNAKRQLYSLIGYASLRLHYVTVKKPTAVDPNSIVECRVGDGTVLGTGVGRNIKIAGIRAAENALRDKKMLDFYAKQRAAIPRSESVLKDPSQKNKKRKFSDTS",stoichiometry N,2
